Target: T1, hB7-1-Fc (human, UniProt P33681 35-242)
T1 construct: human B7-1 (CD80), recombinant Fc fusion; also called rhB7-1; source: bought: R&D Systems
T1 sequence (looked up): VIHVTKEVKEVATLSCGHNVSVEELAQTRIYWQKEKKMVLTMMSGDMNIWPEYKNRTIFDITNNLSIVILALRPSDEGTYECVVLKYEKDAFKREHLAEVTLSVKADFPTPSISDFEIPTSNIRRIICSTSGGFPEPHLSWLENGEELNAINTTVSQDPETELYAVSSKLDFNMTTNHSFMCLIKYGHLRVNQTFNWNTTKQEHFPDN
Assay: BLI; ForteBio Octet; tested 'in a similar way' to the ICOS antibodies (there: antibody loaded on biosensors at 10 ug/mL, Fc protein in solution, dissociation in kinetics buffer: PBS with 0.1% BSA, 0.05% sodium azide, 0.02% Tween-20; global 1:1 fit); which partner was loaded is not said for this experiment
Details: both partners purified

Kd: 14 nM
B1: mCD28-Fc (Fc fusion, mouse, UniProt P31041 20-150, looked up)
chain: NKILVKQSPLLVVDSNEVSLSCRYSYNLLAKEFRASLYKGVNSDVEVCVGNGNFTYQPQFRSNAEFNCDGDFDNETVTFRLWNLHVNHTDIYFCKIEFMYPPPYLDNERSNGTIIHIKEKHLCHTQSSPKL
notes: mouse CD28, recombinant Fc fusion; source: bought: R&D Systems

From paper PMC7514066, “ICOS agonism by JTX-2011 (vopratelimab) requires initial T cell priming and Fc cross-linking for optimal T cell activation and anti-tumor immunity in preclinical models” (PLoS ONE, 2020)
